The text below walks through data of patent US20090098074A1.

Assay [1] addresses human hair (hair keratin) (human). As to the kind of experiment: quantitative hair-binding test; loss of A405 after 10% SDS relative to untreated hair.
Assay [2] concerns the target human skin (skin keratin) (human). As to the kind of experiment: quantitative skin-binding test; loss of A405 after 10% SDS relative to untreated skin.
Assay [3] has the same target. Description: quantitative skin-binding test, after washing with 10% strength SDS; value standardized to the surface.
In assay [4] the target is human hair (hair keratin) (human). Description: quantitative hair-binding test; DENATURED KBD-B on 5 mg human hair, anti-polyHistidine peroxidase conjugate, TMB.
Assay [5] shares this target. Description: quantitative hair-binding test; renatured KBD-B on 5 mg human hair, anti-polyHistidine peroxidase conjugate, TMB.
The target of assay [6] is human skin (skin keratin) (human). Description: quantitative skin-binding test on human keratinocytes in microtiter plates, anti-His antibody/TMB; value standardized to the surface.
In assay [7] the target is human hair (hair keratin) (human). Description: quantitative hair-binding test, after washing with 10% strength SDS; value standardized to the surface.
The target is the same in assay [8]. As to the kind of experiment: quantitative hair-binding test on 5 mg human hair, anti-polyHistidine peroxidase/TMB; value standardized to the surface.
The target is the same in assay [9]. As to the kind of experiment: quantitative hair-binding test; His-tagged protein on 5 mg human hair, anti-polyHistidine peroxidase conjugate, TMB.

B1: KBD-B (SEQ ID No.: 166), keratin-binding domain B of human desmoplakin expressed from pQE30-KBD-B in E. coli (protein)
chain: MRGSHHHHHHGSACELEPHTGLLLLSVQKRSMSFQGIRQPVTVTELVDSGILRPSTVNELESGQISYDEVGERIKDFLQGSSCIAGIYNETTKQKLGIYEAMKIGLVRPGTALELLEAQAATGFIVDPVSNLRLPVEEAYKRGLVGIEFKEKLLSAERAVTGYNDPETGNIISLFQAMNKELIEKGHGIRLLEAQIATGGIIDPKESHRLPVDIAYKRGYFNEELSEILSDPSDDTKGFFDPNTEENLTYLQLKERCIKDEETGLCLLPLKEKKKQVQTSQKNTLRKRRVVIVDPETNKEMSVQEGVDLQPSLIS
As for B1, the Relative absorption loss after 10% strength SDS treatment in % was 86% in [1] and 80% in assay [2]. The Absorption at 405 nm worked out at 0.185 in [3], 0.254 in assay [4], 1.59 in [5] and 0.93 in assay [6].

B2: KBD-D (SEQ ID No.: 168), keratin-binding domain D, H. sapiens plakophilin 1a with N-terminal histidine anchor (protein)
chain: MRGSHHHHHHGSACELGTMNHSPLKTALAYECFQDQDNSTLALPSDQKMKTGTSGRQRVQEQVMMTVKRQKSKSSQSSTLSHSNRGSMYDGLADNYNYGTTSRSSYYSKFQAGNGSWGYPIYNGTLKREPDNRRFSSYSQMENWSRHYPRGSCNTTGAGSDICFMQKIKASRSEPDLYCDPRGTLRKGTLGSKGQKTTQNRYSFYSTCSGQKAIKKCPVRPPSCASKQDPVYIPPISCNKDLSFGHSRASSKICSEDIECSGLTIPKAVQYLSSQDEKYQAIGAYYIQHTCFQDESAKQQVYQLGGICKLVDLLRSPNQNVQQAAAGALRNLVFRSTTNKLETRRQNGIREAVSLLRRTGNAEIQKQLTGLLWNLSSTDELKEELIADALPVLADRVIIPFSGWCDGNSNMSREVVDPEVFFNATGCLRNLSSADAGRQTMRNYSGLIDSLMAYVQNCVAASRCDDKSVENCMCVLHNLSYRLDAEVPTRYRQLEYNARNAYTEKSSTGCFSNKSDKMMNNNYDCPLPEEETNPKGSGWLYHSDAIRTYLNLMGKSKKDATLEACAGALQNLTASKGLMSSGMSQLIGLKEKGLPQIARLLQSGNSDVVRSGASLLSNMSRHPLLHRVMGNQVFPEVTRLLTSHTGNTSNSEDILSSACYTVRNLMASQPQLAKQYFSSSMLNNIINLCRSSASPKAAEAARLLLSDMWSSKELQGVLRQQGFDRNMLGTLAGANSLRNFTSRF
As to B2, the results for the Relative absorption loss after 10% strength SDS treatment in % in [1] and in assay [2] were 30% and 15%, respectively. The Absorption at 405 nm amounted to 3.15 in [3], 0.62 in assay [7], 0.88 in [8] and 3.69 in [6].

B3: comparison Protein YaaD from B. subtilis (with His tag) (protein, UniProt P37527 1-294, looked up, not shown: small tags and cut ends)
chain: MAQTGTERVKRGMAEMQKGGVIMDVINAEQAKIAEEAGAVAVMALERVPADIRAAGGVARMADPTIVEEVMNAVSIPVMAKARIGHIVEARVLEAMGVDYIDESEVLTPADEEFHLNKNEYTVPFVCGCRDLGEATRRIAEGASMLRTKGEPGTGNIVEAVRHMRKVNAQVRKVVAMSEDELMTEAKNLGAPYELLLQIKKDGKLPVVNFAAGGVATPADAALMMQLGADGVFVGSGIFKSDNPAKFAKAIVEATTHFTDYKLIAELSKELGTAMKGIEISNLLPEQRMQERGW
The molecule B3 returned an Absorption at 405 nm in [9] of 0.088.
